According to patent US20260248969A1, “PEPTIDE MULTIMER PRODUCTS AND METHODS” (REGENTS OF THE UNIVERSITY OF MICHIGAN, priority 2023, published 2026):
“Also recorded” adds a separate entry of the source. No end group written: not given here.

Legend:
CD44 [1] = target: T1, CD44 (Homo sapiens, UniProt P16070); test: Co-localization of labeled multimer and anti-CD44 antibody on resected human HCC PDX tumor specimen; format: binding; conditions: merged image
T1 construct: from tissue; host or cells: human HCC patient-derived xenograft tumor grown orthotopically in NSG mouse liver
From the text: (§1) After completion of in vivo imaging, specific multimer binding to the PDX HCC tumor was validated ex vivo using confocal microscopy. These studies confirmed the in vivo imaging results and expression of the expected targets ex vivo. Increased fluorescence intensity is seen at the cell surface (arrow) for the IRDye800-labeled multimer binding to HCC tumor, FIG. 8A. Adjacent sections were stained with antibodies specific for GPC3, CD44, and EpCAM, FIG. 8B-D. Co-localization of multimer and antibody binding is shown on the merged image, FIG. 8E. A correlation of ρ=0.69, 0.65, and 0.70 was measured to characterize binding co-localization by the multimer with the GPC3, CD44, and EpCAM antibodies, respectively.
(§2) Orthotopic HCC PDX tumors were resected and sectioned for immunofluorescence.

EpCAM [2] = target: T2, EpCAM (Homo sapiens, UniProt P16422); test: Co-localization of labeled multimer and anti-EpCAM antibody on resected human HCC PDX tumor specimen; format: binding; conditions: merged image
T2 construct: from tissue; host or cells: human HCC patient-derived xenograft tumor grown orthotopically in NSG mouse liver
T2 sequence (P16422 24-314): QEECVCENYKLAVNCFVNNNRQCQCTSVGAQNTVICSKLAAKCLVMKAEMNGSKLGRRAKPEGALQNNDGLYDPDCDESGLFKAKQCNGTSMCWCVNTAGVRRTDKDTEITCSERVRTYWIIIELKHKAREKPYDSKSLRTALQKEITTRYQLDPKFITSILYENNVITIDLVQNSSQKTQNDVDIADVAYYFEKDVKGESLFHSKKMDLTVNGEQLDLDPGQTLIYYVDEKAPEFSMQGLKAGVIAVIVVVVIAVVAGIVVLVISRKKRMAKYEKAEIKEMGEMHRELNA
From the text: as §1, §2

human CCA-156 HCC cells = test: Binding of Cy5.5-labeled peptides to CCA-156 HCC cells, confocal fluorescence; format: cell-based; conditions: 5 μM, 5 min on ice
Procedure: HCC patient-derived cells (CCA-156) were generated from fresh, de novo tumor specimens obtained from patients undergoing liver transplant.
Fresh tissue was cut into ~1 mm^2 pieces in ice-cold DPBS. and 3-4 pieces were placed in one well of a 12-well plate. Minced tissue was cultured using Matrigel with growth media containing 10 μM ROCK inhibitor Y27632 (ATCC) and 5 μM TGF-β inhibitor (A83-01, Sigma-Aldrich) diluted to 8 mg/mL. An HCC cell line and a corresponding organoid were successfully generated. The cell line was denoted CCA-156 to reflect the specimen ID.
(§3) Approximately 10^3 CCA-156 cells were grown on the cover glass in a 24-well plate to ~90% confluence. The cells were washed with PBS twice and incubated with 5 μM of either Cy5.5-labeled peptide multimer or peptide monomer for 5 min on ice. The cells were then washed with PBS for 3X, fixed with 4% paraformaldehyde (PFA) in PBS for 15 min, washed with PBS for twice, then mounted on glass slides with ProLong Gold reagent containing DAPI (Invitrogen).

GPC3 [3] = target: T3, GPC3 (Homo sapiens, UniProt P51654); test: Co-localization of labeled multimer and anti-GPC3 antibody on resected human HCC PDX tumor specimen; format: binding; conditions: merged image
T3 construct: from tissue; host or cells: human HCC patient-derived xenograft tumor grown orthotopically in NSG mouse liver
From the text: as §1, §2

GPC3 [4] = target: T3, GPC3; test: Co-localization of multimer and anti-GPC3-AF532 on human liver tissue microarray; format: binding
Procedure: (§4) Binding of Cy5.5-labeled peptide multimer was evaluated using human HCC specimens ex vivo. All experiments using human tissues were approved by the Michigan Medicine IRB (HUM00122873). A tissue microarray (TMA) was generated from n=120 liver specimens provided by the archived tissue bank in the Department of Pathology. Paraffin-embedded (FFPE) section slide was deparaffinized and conducted through antigen retrieval. Blocking procedure was performed with 5% goat serum for 1 hour at room temperature. The slide was first stained with the Cy5.5 labeled peptide multimer at 5 μM for 5 min at room temperature. The section was then incubated with primary antibodies using 1:200 dilution of primary recombinant rabbit anti-GPC3 antibody (#ab95363, Abcam), 1:500 dilution of primary recombinant mouse anti-CD44 antibody (#3570, Cell Signaling Technology), and AF594-labeled primary anti-EpCAM (#7319, Cell Signaling Technology) overnight at 4° C. After washing with 2% BSA in PBST, section was incubated with 1:500 dilution of AF488-labeled secondary goat anti-mouse IgG antibody (#ab150113, Abcam) and 1:500 dilution of AF532-labeled secondary goat anti-rabbit IgG antibody (#A-11029, Life Technologies) for 1 hour at room temperature, and mounted with Prolong Gold reagent containing DAPI at last (Invitrogen). The fluorescence images were collected using Leica Stellaris 5 (inverted), excitation at Aex=670 nm for the peptide multimer, and λex=488, 532, 594 nm for CD44, GPC3 and EpCAM antibody, respectively. Fluorescence intensities were quantified using Leica LAS AF Lite software. All slides were evaluated by an expert liver pathologist.

EpCAM [5] = target: T2, EpCAM; test: Co-localization of labeled multimer and anti-EpCAM antibody binding to HCC patient-derived organoids (PDOs); conditions: merged images
Procedure: (§5) PDOs were established from human HCC specimens. These immortalized human tissues provided clinically relevant target expression levels and genetic heterogeneity seen in the HCC patient population. Short tandem repeat analysis was performed to authenticate human genomic expression and characterize genetic variations. Images collected using the candidate IRDye800-labeled multimer, AF488-labeled monoclonal antibodies specific for GPC3, CD44, and EpCAM, and merged are shown, FIG. 2A-C. Strong fluorescence intensity can be seen at the cell surface (arrows). Multimer and antibody co-localization was measured using correlation analysis.
(§6) For a co-localization assay, patient-derived organoids were recovered from Matrigel and fixed by 4% PFA for 30 min. Permeabilization and blocking were performed using 5% serum (v/v) and 1% Triton X-100 (v/v) in PBS for 3 hours at room temperature. Organoids were then incubated with 1:200 dilution of primary recombinant rabbit anti-GPC3 antibody (#ab95363, Abcam), 1:500 dilution of primary recombinant mouse anti-CD44 antibody (#3570, Cell Signaling Technology), and AF594-labeled primary anti-EpCAM (#7319, Cell Signaling Technology) at 4° C. overnight. […] Confocal fluorescence images were obtained on Leica Stellaris 5 (inverted) confocal microscope using a 63X oil-immersion objective. Fluorescence intensities were quantified using Leica LAS AF Lite software.

human liver specimens = test: Multimer staining of human liver specimens ex vivo (tissue microarray), fluorescence intensity and ROC
Procedure: as §4

GPC3 [6] = target: T3, GPC3; test: Co-localization of labeled multimer and anti-GPC3 antibody binding to HCC patient-derived organoids (PDOs); conditions: merged images
Procedure: as §5, §6

CD44 [7] = test: Co-localization of labeled multimer and anti-CD44 antibody binding to HCC patient-derived organoids (PDOs); set-up: species or system human; conditions: merged images
Procedure: as §5, §6

EpCAM [8] = target: T2, EpCAM; test: Co-localization of multimer and anti-EpCAM-AF594 on human liver tissue microarray; format: binding
Procedure: as §4

CD44 [9] = target: T1, CD44; test: Co-localization of multimer and anti-CD44-AF488 on human liver tissue microarray; format: binding
Procedure: as §4

[10] = target: T4, CD44 (cluster of differentiation 44) (human, UniProt P16070 21-742); test: flow cytometry, labeled peptide 0-200 nM on SK-Hep1 human HCC cells; apparent dissociation constant
T4 construct: whole, on cells; Endogenous target on human HCC cells and tissues; no recombinant protein was used
Procedure: A) WKG*-IRDye800 and anti-CD44-AF488 bind intensely to the surface (arrows) of SK-Hep1 human HCC cells. A Pearson's correlation coefficient of r=0.81 was measured from the merged image. […] B) An apparent dissociation constant of kd=43 nM, R²=0.99, was measured for WKG*-IRDye800 binding to SK-Hep1 cells. The equilibrium dissociation constant kd=1/kₐ was calculated by performing using a least square fit of the data to the non-linear equation […]. I₀ and Iₘₐₓ are the initial and maximum fluorescence intensities, corresponding to no peptide and at saturation, respectively, and [X] represents the concentration of the bound peptide. Results are the mean values from 3 independent experiments. C) Serum stability of WKG*-IRDye800 (200 μM in 200 μL of PBS) in mice (n=5) was measured following intravenous injection. […] The fluorescence intensity I(t) was measured and fit to a first-order kinetics model I(t)=Iₒ+A×exp(−Bt), and a serum half-life of T_{1/2}=5.1 hours was calculated.
The apparent dissociation constant (kd) of the IRDye800-labeled WKG* peptide monomer was measured to provide an estimate of binding affinity. […] Fluorescence intensities were measured with flow cytometry. WKG*-IRDye800 was incubated with SK-Hep1 cells over concentrations ranging from 0-200 nM, and the fluorescence intensity was measured with flow cytometry. […]

[11] = target: T5, Epithelial cell adhesion molecule (EpCAM) (human, UniProt P16422 24-314); test: fluorescence microscopy, 5 uM on CCA-156 cells
T5 construct: whole, on cells; Endogenous target on human HCC cells and tissues
T5 sequence (looked up): T2 sequence (P16422 24-314)
Procedure: as §3, with “10³” for “10^3”

T3 sequence (P51654 25-554): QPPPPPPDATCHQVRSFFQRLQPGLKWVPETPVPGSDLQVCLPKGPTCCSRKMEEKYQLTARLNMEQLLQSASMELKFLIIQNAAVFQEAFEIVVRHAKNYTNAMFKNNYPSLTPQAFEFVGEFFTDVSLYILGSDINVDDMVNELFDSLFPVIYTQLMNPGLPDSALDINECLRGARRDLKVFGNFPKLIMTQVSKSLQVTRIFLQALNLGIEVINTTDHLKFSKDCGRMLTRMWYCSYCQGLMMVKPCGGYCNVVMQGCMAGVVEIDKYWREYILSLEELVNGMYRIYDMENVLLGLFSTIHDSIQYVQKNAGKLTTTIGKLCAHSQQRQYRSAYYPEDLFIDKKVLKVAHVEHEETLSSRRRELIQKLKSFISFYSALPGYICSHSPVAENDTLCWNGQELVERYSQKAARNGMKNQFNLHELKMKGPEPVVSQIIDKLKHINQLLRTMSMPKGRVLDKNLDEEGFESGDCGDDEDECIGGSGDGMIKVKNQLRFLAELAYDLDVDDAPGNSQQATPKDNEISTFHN
T1 sequence (P16070 21-742): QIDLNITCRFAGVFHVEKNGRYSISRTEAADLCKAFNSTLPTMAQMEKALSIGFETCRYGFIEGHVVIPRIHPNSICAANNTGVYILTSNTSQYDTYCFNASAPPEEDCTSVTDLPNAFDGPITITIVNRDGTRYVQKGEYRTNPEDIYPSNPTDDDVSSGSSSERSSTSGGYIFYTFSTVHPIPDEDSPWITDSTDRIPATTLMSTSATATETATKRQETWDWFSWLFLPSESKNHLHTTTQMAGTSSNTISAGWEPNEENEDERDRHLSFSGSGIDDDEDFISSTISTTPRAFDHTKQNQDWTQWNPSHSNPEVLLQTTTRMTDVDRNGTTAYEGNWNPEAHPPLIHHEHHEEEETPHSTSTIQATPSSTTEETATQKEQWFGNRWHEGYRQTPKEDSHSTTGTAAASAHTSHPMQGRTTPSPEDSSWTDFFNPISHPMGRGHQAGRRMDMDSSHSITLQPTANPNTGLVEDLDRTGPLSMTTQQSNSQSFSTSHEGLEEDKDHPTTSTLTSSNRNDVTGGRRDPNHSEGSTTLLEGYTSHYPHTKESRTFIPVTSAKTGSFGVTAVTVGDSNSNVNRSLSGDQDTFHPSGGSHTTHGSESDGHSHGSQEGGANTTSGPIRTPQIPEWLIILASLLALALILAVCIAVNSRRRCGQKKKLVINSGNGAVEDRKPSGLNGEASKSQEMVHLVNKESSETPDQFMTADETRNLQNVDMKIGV
T1 sequence (P16070 21-222 limits assumed): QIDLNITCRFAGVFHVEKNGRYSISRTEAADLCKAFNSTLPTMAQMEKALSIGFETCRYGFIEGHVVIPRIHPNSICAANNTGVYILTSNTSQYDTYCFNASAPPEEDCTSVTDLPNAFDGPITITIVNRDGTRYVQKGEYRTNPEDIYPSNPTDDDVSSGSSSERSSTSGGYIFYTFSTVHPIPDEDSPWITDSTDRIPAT
T4 sequence (P16070 21-742): as the sequence (P16070 21-742) above

Molecule: Cy5.5-labeled peptide multimer: peptide multimer of GPC3-, CD44- and EpCAM-specific peptides labeled with Cy5.5 (peptide 1 ALLANHEELFQT; peptide 2 WKGWSYLWTQQA; peptide 3 HPDMFTRTHSHN; not fully specified; also: peptide multimer, linkage not given here, Cy5.5 label, site not given here)
- Pearson's correlation coefficient, multimer with CD44 antibody (CD44 [1]): 0.65
- Pearson's correlation coefficient, multimer with EpCAM antibody (EpCAM [2]): 0.70
- binding to cell surface of CCA-156 cells (fluorescence) (human CCA-156 HCC cells): Strong fluorescence signal; also recorded: strong binding
- Pearson's correlation coefficient, multimer with GPC3 antibody (GPC3 [3]): 0.69
- Pearson's correlation coefficient, multimer and GPC3 antibody (GPC3 [4]; HCC): 0.76
- Pearson's correlation coefficient, multimer and GPC3 antibody (GPC3 [4]; adenoma): 0.82
- Pearson's correlation coefficient, multimer and GPC3 antibody (GPC3 [4]; cirrhosis): 0.69
- Pearson's correlation coefficient, multimer and GPC3 antibody (GPC3 [4]; normal liver): 0.74
- correlation of co-localization, multimer and EpCAM antibody (EpCAM [5]): 0.75
- quantified fluorescence intensity, mean±SD (human liver specimens; HCC): 8.4±1.0
- quantified fluorescence intensity, mean±SD (human liver specimens; adenoma): 5.8±0.4
- quantified fluorescence intensity, mean±SD (human liver specimens; cirrhosis): 6.4+0.7
- fluorescence intensity for HCC versus cirrhosis, adenoma, and normal (human liver specimens; n=120 specimens): significantly greater
- quantified fluorescence intensity, mean±SD (human liver specimens; normal): 6.4±0.4
- correlation of co-localization, multimer and GPC3 antibody (GPC3 [6]): 0.74
- correlation of co-localization, multimer and CD44 antibody (CD44 [7]): 0.80
- Pearson's correlation coefficient, multimer and EpCAM antibody (EpCAM [8]; HCC): 0.81
- Pearson's correlation coefficient, multimer and EpCAM antibody (EpCAM [8]; adenoma): 0.83
- Pearson's correlation coefficient, multimer and EpCAM antibody (EpCAM [8]; cirrhosis): 0.66
- Pearson's correlation coefficient, multimer and EpCAM antibody (EpCAM [8]; normal liver): 0.83
- Pearson's correlation coefficient, multimer and CD44 antibody (CD44 [9]; HCC): 0.70
- Pearson's correlation coefficient, multimer and CD44 antibody (CD44 [9]; adenoma): 0.74
- Pearson's correlation coefficient, multimer and CD44 antibody (CD44 [9]; cirrhosis): 0.60
- Pearson's correlation coefficient, multimer and CD44 antibody (CD44 [9]; normal liver): 0.69

Molecule: IRDye800-labeled multimer: GPC3-, CD44- and EpCAM-specific peptide monomers arranged via tri-lysine linker and PEG3 linkers, labeled with IRDye800 (peptide 1 ALLANHEELFQT; peptide 2 WKGWSYLWTQQA; peptide 3 HPDMFTRTHSHN; not fully specified; also: monomers arranged via tri-lysine linker and PEG3 linkers, IRDye800 label, site not given here)
- Pearson's correlation coefficient, multimer with CD44 antibody (CD44 [1]): 0.65
- Pearson's correlation coefficient, multimer with EpCAM antibody (EpCAM [2]): 0.70
- Pearson's correlation coefficient, multimer with GPC3 antibody (GPC3 [3]): 0.69
- correlation of co-localization, multimer and EpCAM antibody (EpCAM [5]): 0.75
- correlation of co-localization, multimer and GPC3 antibody (GPC3 [6]): 0.74
- correlation of co-localization, multimer and CD44 antibody (CD44 [7]): 0.80

B1: WKG*-IRDye800 (IRDye800-labeled WKG* peptide monomer, WKGWSYLWTQQA) (peptide)
peptide: WKGWSYLWTQQA
modifications: also: IRDye800 label, site not given here
notes: also called IRDye800-labeled WKD* monomer peptide
- Kd [10]: 43 nM

Molecule: HPDMFTRTHSHN (also: Cy5.5 label, site and linker not given here) [HPD*-Cy5.5 (Cy5.5-labeled EpCAM peptide monomer, HPDMFTRTHSHN)]
- binding result [11]: binds
